Laboratory results from patent publication US20180280504A1, “GLYCAN-INTERACTING COMPOUNDS AND METHODS OF USE” (SIAMAB THERAPEUTICS, INC., priority 2014, published 2018).

Legend:
[1] = Glycan array, Tn and other glycans; type: binding; settings: glycan microarray
Protocol: Optimized glycan arrays comprise 71 chemically synthesized and well-defined glycans, most of which comprise Neu5Ac and Neu5Gc glycan pairs.
300 ml of epoxy blocking buffer is prepared by combining 15 ml of 2 M Tris buffer (pH 8) with 0.9 ml of 16.6 M ethanolamine and 284.1 ml of distilled water. The solution was brought to a final pH of 9.0 with HCl. The solution is filtered using a 0.2 μM nitrocellulose membrane. The epoxy buffer solution as well as 1 L of distilled water are pre-warmed to 50° C. Glass slides are arranged in a slide holder and quickly submerged in a staining tub with the warmed epoxy blocking buffer. Slides are incubated in the epoxy blocking buffer for 1 hour at 50° C. with periodic shaking to deactivate epoxy binding sites. Next, slides are rinsed and blocked with PBS with 1% OVA at 25° C. for one hour. Serum samples with polyclonal antibodies (1:1000) or purified monoclonal antibodies (1 ug/mL), are diluted in PBS with 1% OVA and added to the glycan array for one hour at 25° C. After extensive washing, binding of antibodies are detected by incubating glycan microarray slides with Cy3-conjugated anti-mouse IgG (Jackson Immunoresearch, West Grove, Pa.) for one hour. Slides are then washed extensively, dried and scanned with a Genepix 4000B scanner (Laser at 100%; gain at 350; 10 μm pixels). […]

[2] = system: E3-STn tumors; assay: E3-STn allograft model, second round study, tumor volume; type: in vivo, mouse; settings: for Average Tumor Volume: 25 mg/kg i.p. twice weekly
Excerpt: Standard deviation values are listed in parenthesis.

[3] = system: COLO-205 Human Colon Adenocarcinoma Tumor Xenograft; assay: COLO-205 human colon adenocarcinoma xenograft model, tumor volume; type: in vivo, mouse; settings: 5 mg/kg i.p. once weekly
Excerpt: (§1) To evaluate antibody drug conjugates (ADCs) as single agents in an COLO-205 Colon AdenocarcinomaTumor Xonograft model, 40 athymic nude female mice age range 6-8 weeks were randomly separated into four separate groups, one vehicle control and three ADC treatments, then maintained individually with food/water ad libitum (see the following Table).
(§2) Animals were inoculated in the subcutaneous right flank with 5×10^6 colon adenocarcinoma tumor cells (COLO-205) in matrigel, mean tumor size was 175-225 mm^3 at study initiation. Animals were given either vehicle or one of the antibody drug conjugates (5 mg/kg) by intraperitoneal injection once weekly. Tumor volume and percent body weight change were determined once weekly until study termination. The study was terminated when the tumor in the vehicle control animal reached a mean tumor weight >1500 mm^3. SE refers to “standard error.”

[4] = system: MDA-MB-231-STn Human Breast Tumor Xenograft; assay: MDA-MB-231-STn xenograft model, clinical observations of tumors; type: in vivo, mouse; settings: 5 mg/kg i.p. once weekly
Protocol: Animals were inoculated in the subcutaneous right flank with 5×10^6 breast tumor cells (MDA-MB-231-STn) in matrigel, mean tumor size was 175-225 mm^3 at study initiation. Animals were given either vehicle or antibody drug conjugates (5 mg/kg) by intraperitoneal injection once weekly. Tumor volume and percent body weight change were determined once weekly until study termination. The study was terminated when the tumor in the vehicle control animal reached a mean tumor weight ≥1500 mm^3. SE refers to “standard error.”
Clinical observations of tumor shape, size and disposition were noted throughout the study.

[5] = Immunohistochemical staining of normal and tumor tissues (TMA); settings: tissue microarray slides
Protocol: The procedure for IHC staining includes the following steps: a). obtain tissue samples and prepare specimen slides; b). prepare tissue samples for IHC staining; i. perform antigen retrieval with Diva antigen retrieval solution for 30 minutes at 95° C.; or treat slides with 250 mU/mL neuraminidase in 50 mM sodium acetate, pH 5.5 for 2.5 hours at 37° C.; ii. rinse all treated slides twice with Tris-buffered saline auto-wash (TBS-AW); iii. apply Sniper protein block to all slides for 20 minutes to reduce non-specific binding and rinse twice in TBS-AW; c). perform antibody staining; i. incubate the pretreated slides with the primary antibody. For example, anti-STn antibody S3F is applied (10 or 30 ug/mL) for 60 minutes; ii. rinse twice in TBS-AW; iii. block endogenous peroxidase with peroxidase 1 for 10 minutes; iv. rinse twice with TBS-AW; v. incubate the slides with biotinylated goat anti-mouse IgG in DaVinci Green at 1:500 dilution for 30 minutes; vi. rinse twice with TBS-AW. d). develop the staining; i. add ABC Elite and incubate the slides for 30 minutes; ii. rinse twice with TBS-AW; iii. apply Sigma Fast DAB solution for 5 minutes followed by a rinse in distilled water; iv. counterstain and coverslip the slides for analysis. […]

[6] = COLO-205 xenograft model, percent body weight change; type: in vivo, mouse; settings: 5 mg/kg i.p. once weekly
Excerpt: as §1, §2

B1: 18C7: anti-STn mouse monoclonal, IgG2c κ, from mouse #4436; VH SEQ ID NO: 4, VL SEQ ID NO: 5 (antibody, V domains shown)
VH: QVTLKESGPGILQPSQTLSLTCSFSGFSLSTFGMGVGWIRQPSGKGLEWLAHIWWDDDKYYNPALKSRLTISKDTSKNQVFLKIANVDTADTATYYCARIAYYYGSERDYWGQGTTLTVSS
VL: QIVLTQSPAIMSASPGEKVTMTCSASSSISYMHWYHQKPGTSPKRWIYDTSKLASGVPARFSGSGSGTSYSLTISSMEAEDAATYYCHQRSSYTFGGGTKLEIKR
In the case of B1, the “binding to Tn antigen or other glycans” value [1] is reported as “No binding”.

B2: 7G9: anti-STn mouse monoclonal, IgG2b κ, from mouse #4407; VH SEQ ID NO: 12, VL SEQ ID NO: 9 (antibody, V domains shown)
VH: QVQLKESGPGLVAPSQNLSITCTVSGFSLTSYGVNWVRQPPGKGLEWLGVIWGDGSTNYHSALISRLIISKENSKSQVFLKLNSLQTNDTATYYCTKGFVYWGQGTLVTVSA
VL: QIVLTQSPAIMSASPGEKVTMTCSASSSVSYMHWYQQKSGTSPKRWIFDTSKLASGVPARFSGSGSGTSYSLTISSMEAEDAATYYCQQWSSNLLTFGAGTKLELK
In the case of B2, the “Average Tumor Volume” value ([2]; day 1 of treatment) is reported as 125.9 mm^3, the “Average Tumor Volume” value ([2]; day 5 of treatment) is reported as 135.2 mm^3 and the “Average Tumor Volume” value ([2]; day 8 of treatment) is reported as 144.5 mm^3. For the same molecule, the “Average Tumor Volume” value ([2]; day 12 of treatment) was 157.2 mm^3, the “Average Tumor Volume” value ([2]; day 15 of treatment) was 169.2 mm^3 and the “Average Tumor Volume” value ([2]; day 19 of treatment) was 178.0 mm^3. For the same molecule, the “Average Tumor Volume” value ([2]; day 22 of treatment) was 186.4 mm^3, the “Average Tumor Volume” value ([2]; day 26 of treatment) was 195.9 mm^3 and the “Average Tumor Volume” value ([2]; day 29 of treatment) was 199.4 mm^3. The “Average Tumor Volume” value ([2]; day 33 of treatment) was 201.5 mm^3, the “Average Tumor Volume” value ([2]; day 36 of treatment) was 206.5 mm^3 and the “Average Tumor Volume” value ([2]; day 40 of treatment) was 212.9 mm^3. For the same molecule, the “Average Tumor Volume” value ([2]; day 43 of treatment) was 243.7 mm^3, the “Average Tumor Volume” value ([2]; day 47 of treatment) was 277.5 mm^3 and the “Average Tumor Volume” value ([2]; day 50 of treatment) was 313.4 mm^3. The “average tumor volumes as compared to vehicle control” value ([2]; second round study, 25 mg/kg i.p. twice weekly for 7 weeks) was “greatly reduced”.

B3: S3F: 3F1 variable domains combined with IgG2a constant domains; heavy chain SEQ ID NO: 63, light chain SEQ ID NO: 64 (antibody)
heavy: QVQLQQSDAELVKPGASVKISCKASGYTFTDHAIHWVKQKPEQGLDWIGYISPGNGDIKYNEKFKDKVTLTADKSSSTACMHLNSLTSEDSAVYFCKRSLLALDYWGQGTTLTVSSAKTTAPSVYPLAPVCGDTTGSSVTLGCLVKGYFPEPVTLTWNSGSLSSGVHTFPAVLQSDLYTLSSSVTVTSSTWPSQSITCNVAHPASSTKVDKKIEPRGPTIKPCPPCKCPAPNLLGGPSVFIFPPKIKDVLMISLSPIVTCVVVDVSEDDPDVQISWFVNNVEVHTAQTQTHREDYNSTLRVVSALPIQHQDWMSGKEFKCKVNNKDLPAPIERTISKPKGSVRAPQVYVLPPPEEEMTKKQVTLTCMVTDFMPEDIYVEWTNNGKTELNYKNTEPVLDSDGSYFMYSKLRVEKKNWVERNSYSCSVVHEGLHNHHTTKSFSRTPGK
light: DIVMTQSHKFMSTSVGDRVSITCKASQDVGTNIAWYQQKPGRSPKVLIYSASTRHTGVPDRFTGSGSGTDFTLTISNVQSEDLTDYFCQQYSSFPLTFGVGTKLELKRADAAPTVSIFPPSSEQLTSGGASVVCFLNNFYPKDINVKWKIDGSERQNGVLNSWTDQDSKDSTYSMSSTLTLTKDEYERHNSYTCEATHKTSTSPIVKSFNRNEC
With B3 the “tumor volume course after day 8” value ([3]; athymic nude mice) was “continued to show rapid increase in volume”, the “Tumor Volume” value ([3]; study day 1) was 182.8 mm^3 and the “Tumor Volume” value ([3]; study day 5) was 315.2 mm^3. The “Tumor Volume” value ([3]; study day 8) was 448.8 mm^3, the “Tumor Volume” value ([3]; study day 10) was 543.1 mm^3 and the “Tumor Volume” value ([3]; study day 15) was 655.3 mm^3. For the same molecule, the “Tumor Volume” value ([3]; study day 19) was 850.6 mm^3, the “Tumor Volume” value ([3]; study day 22) was 938.2 mm^3 and the “Tumor Volume” value ([3]; study day 25) was 1001.4 mm^3. The “clinical observations of tumor shape, size and disposition” value [4] was “fewer severe tumors with fluid secretion”, the “IHC staining pattern, cancerous tissues” value [5] was “STn was present in most cancerous tissues” and the “IHC staining pattern, normal tissues” value [5] was “STn expression was rare in normal tissues”. The “body weight course after initial drop” value [6] was “remained low”, the “Percent Body Weight Change” value ([6]; study day 1) was 0% and the “Percent Body Weight Change” value ([6]; study day 5) was 1.18%. For the same molecule, the “Percent Body Weight Change” value ([6]; study day 8) was −5.01%, the “Percent Body Weight Change” value ([6]; study day 10) was −2.53% and the “Percent Body Weight Change” value ([6]; study day 15) was −5.22%. For the same molecule, the “Percent Body Weight Change” value ([6]; study day 19) was −1.33% and the “Percent Body Weight Change” value ([6]; study day 22) was −0.91%.
